Assay results reported in patent US20050239169.

T1: SELADIN-1
T1 chain: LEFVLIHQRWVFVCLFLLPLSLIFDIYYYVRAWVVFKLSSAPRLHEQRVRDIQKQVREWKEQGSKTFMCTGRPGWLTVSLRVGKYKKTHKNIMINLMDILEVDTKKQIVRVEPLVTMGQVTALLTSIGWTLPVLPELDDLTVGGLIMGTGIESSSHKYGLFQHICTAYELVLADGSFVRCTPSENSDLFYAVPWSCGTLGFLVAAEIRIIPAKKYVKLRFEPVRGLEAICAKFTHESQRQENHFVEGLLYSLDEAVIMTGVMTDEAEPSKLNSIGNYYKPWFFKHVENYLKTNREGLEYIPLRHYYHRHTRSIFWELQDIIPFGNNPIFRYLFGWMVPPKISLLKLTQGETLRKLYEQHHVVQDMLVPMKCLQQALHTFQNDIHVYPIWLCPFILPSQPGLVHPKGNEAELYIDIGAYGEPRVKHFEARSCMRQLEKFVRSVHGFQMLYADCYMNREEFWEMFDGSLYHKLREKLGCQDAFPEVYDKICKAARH

B1: caspase 3 (protein)
chain: SGISLDNSYKMDYPEMGLCIIINNKNFHKSTGMTSRSGTDVDAANLRETFRNLKYEVRNKNDLTREEIVELMRDVSKEDHSKRSSFVCVLLSHGEEGIIFGTNGPVDLKKITNFFRGDRCRSLTGKPKLFIIQACRGTELDCGIETDSGVDDDMACHKIPVEADFLYAYSTAPGYYSWRNSKDGSWFIQSLCAMLKQYADKLEFMHILTRVNRKVATEFESFSFDATFHAKKQIPCIVSMLTKELYFYH
B2: caspase 6 (protein)
chain: AFYKREMFDPAEKYKMDHRRRGIALIFNHERFFWHLTLPERRGTCADRDNLTRRFSDLGFEVKCFNDLKAEELLLKIHEVSTVSHADADCFVCVFLSHGEGNHIYAYDAKIEIQTLTGLFKGDKCHSLVGKPKIFIIQACRGNQHDVPVIPLDVVDNQTEKLDTNITEVDAASVYTLPAGADFLMCYSVAEGYYSHRETVNGSWYIQDLCEMLGKYGSSLEFTELLTLVNRKVSQRRVDFCKDPSAIGKKQVPCFASMLTKKLHFFPKSN

Biological target: T1, SELADIN-1

Protein	in vitro cleavage of SELADIN-1 (fragment sizes)
B1	In vitro cleavage of SELADIN-1 by caspase 3 or 6 generated four different SELADIN-1 fragments of approximately 50, 40, 30 and 20 kDa, respectively
B2	In vitro cleavage of SELADIN-1 by caspase 3 or 6 generated four different SELADIN-1 fragments of approximately 50, 40, 30 and 20 kDa, respectively
